Experiments:
[1] = target: WinZip-B2-DHFR[2:I114A] (murine) (UniProt P00375); experiment: cell-based or functional assay
[2] = target: WinZip-B1-DHFR[2:I114A] (murine) (UniProt P00375); experiment: cell-based or functional assay

Frequency of dominant Pair at P12 [1]: 67%
Selection factor (competition selection) [1]: 87000
frequency of the pair among sequenced colonies at P10 (fraction (3/5)) [1]: 0.6
Frequency of dominant Pair at P12 [2]: 82%
Selection factor (competition selection) [2]: 3.2e+06
frequency of the pair among sequenced colonies at P10 [2]: 33%
Substance: WinZip-A1-DHFR[1] (from UniProt P00375 1-107) (designed binder)

— patent publication US7855167
